Laboratory results reported in the supplement of paper PMC11316812.
± gives the standard deviation of the averaged measurements.

Legend:
MCF7 = assay: percentage of EdU-negative (G0-arrested) nuclei per well, 72 h; higher = more G0 arrest; settings: reference: sequence is the full UniProt precursor, the tested protein was the secreted form or ectodomain
hTERT-HMEC = assay: as above; settings: reference: sequence is the full UniProt precursor, the tested protein was the secreted form or ectodomain
[1] = protein concentration 0.0114286 µM
[2] = protein concentration 0.114286 µM
[3] = protein concentration 0.0357143 µM
[4] = protein concentration 0.357143 µM
[5] = protein concentration 0.0225 µM
[6] = protein concentration 0.01975 µM
[7] = protein concentration 0.1975 µM
[8] = protein concentration 0.02625 µM
[9] = protein concentration 0.2625 µM
[10] = protein concentration 0.0257143 µM
[11] = protein concentration 0.257143 µM
[12] = protein concentration 0.01025 µM
[13] = protein concentration 0.1025 µM
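Note: secreted proteins added to cultured cells, EdU pulse at the end, nuclei found by Hoechst imaging, EdU status from nuclear versus surrounding ring intensity ratio, PBS as neutral control.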

H7BXV5
percentage of EdU-negative (MCF7; [1]): 23 ± 0.76%
percentage of EdU-negative (MCF7; [2]): 23.83 ± 0.21%
percentage of EdU-negative (hTERT-HMEC; [1]): 4.71 ± 0.48%
percentage of EdU-negative (hTERT-HMEC; [2]): 7.28 ± 0.91%

MAAAAATKILLCLPLLLLLSGWSRAGRADPHSLCYDITVIPKFRPGPRWCAVQGQVDEKTFLHYDCGNKTVTPVSPLGKKLNVTTAWKAQNPVLREVVDILTEQLRDIQLENYTPKEPLTLQARMSCEQKAEGHSSGSWQFSFDGQIFLLFDSEKRMWTTVHPGARKMKEKWENDKVVAMSFHYFSMGDCIGWLEDFLMGMDSTLEPSAGAPLAMSSGTTQLRATATTLILCCLLIILPCFILPGI [Q9BZM5]
percentage of EdU-negative (MCF7; [3]): 22.2 ± 0.6%
percentage of EdU-negative (MCF7; [4]): 25.5 ± 0.78%
percentage of EdU-negative (hTERT-HMEC; [3]): 4.46 ± 0.35%
percentage of EdU-negative (hTERT-HMEC; [4]): 5.89 ± 0.34%

MAAAAMAAAAGGGAGAARSLSRFRGCLAGALLGDCVGSFYEAHDTVDLTSVLRHVQSLEPDPGTPGSERTEALYYTDDTAMARALVQSLLAKEAFDEVDMAHRFAQEYKKDPDRGYGAGVVTVFKKLLNPKCRDVFEPARAQFNGKGSYGNGGAMRVAGISLAYSSVQDVQKFARLSAQLTHASSLGYNGAILQALAVHLALQGESSSEHFLKQLLGHMEDLEGDAQSVLDARELGMEERPYSSRLKKIGELLDQASVTREEVVSELGNGIAAFESVPTAIYCFLRCMEPDPEIPSAFNSLQRTLIYSISLGGDTDTIATMAGAIAGAYYGMDQVPESWQQSCEGYEETDILAQSLHRVFQKS [Q9NX46]
percentage of EdU-negative (MCF7; [5]): 24.5 ± 2.2%
percentage of EdU-negative (MCF7; protein concentration 0.225 µM): 29.1 ± 3.5%
percentage of EdU-negative (hTERT-HMEC; [5]): 4.73 ± 1.1%
percentage of EdU-negative (hTERT-HMEC; protein concentration 0.225 µM): 7.08 ± 0.11%

MAAAASPAFLLCLPLLHLLSGWSRAGWVDTHCLCYDFIITPKSRPEPQWCEVQGLVDERPFLHYDCVNHKAKAFASLGKKVNVTKTWEEQTETLRDVVDFLKGQLLDIQVENLIPIEPLTLQARMSCEHEAHGHGRGSWQFLFNGQKFLLFDSNNRKWTALHPGAKKMTEKWEKNRDVTMFFQKISLGDCKMWLEEFLMYWEQMLDPTKPPSLAPGTTQPKAMATTLSPWSLLIIFLCFILAGR [Q9BZM6]
percentage of EdU-negative (MCF7; [6]): 24.2 ± 1.6%
percentage of EdU-negative (MCF7; [7]): 25.4 ± 1.1%
percentage of EdU-negative (hTERT-HMEC; [6]): 4.75 ± 0.89%
percentage of EdU-negative (hTERT-HMEC; [7]): 6.21 ± 1.1%

MAAAASPAILPRLAILPYLLFDWSGTGRADAHSLWYNFTIIHLPRHGQQWCEVQSQVDQKNFLSYDCGSDKVLSMGHLEEQLYATDAWGKQLEMLREVGQRLRLELADTELEDFTPSGPLTLQVRMSCECEADGYIRGSWQFSFDGRKFLLFDSNNRKWTVVHAGARRMKEKWEKDSGLTTFFKMVSMRDCKSWLRDFLMHRKKRLEPTAPPTMAPGLAQPKAIATTLSPWSFLIILCFILPGI [Q9BZM4]
percentage of EdU-negative (MCF7; [8]): 25.38 ± 0.21%
percentage of EdU-negative (MCF7; [9]): 27.9 ± 1.3%
percentage of EdU-negative (hTERT-HMEC; [8]): 5.34 ± 0.19%
percentage of EdU-negative (hTERT-HMEC; [9]): 4.8 ± 0.37%

MAAALFVLLGFALLGTHGASGAAGFVQAPLSQQRWVGGSVELHCEAVGSPVPEIQWWFEGQGPNDTCSQLWDGARLDRVHIHATYHQHAASTISIDTLVEEDTGTYECRASNDPDRNHLTRAPRVKWVRAQAVVLVLEPGTVFTTVEDLGSKILLTCSLNDSATEVTGHRWLKGGVVLKEDALPGQKTEFKVDSDDQWGEYSCVFLPEPMGTANIQLHGPPRVKAVKSSEHINEGETAMLVCKSESVPPVTDWAWYKITDSEDKALMNGSESRFFVSSSQGRSELHIENLNMEADPGQYRCNGTSSKGSDQAIITLRVRSHLAALWPFLGIVAEVLVLVTIIFIYEKRRKPEDVLDDDDAGSAPLKSSGQHQNDKGKNVRQRNSS
percentage of EdU-negative (MCF7; [5]): 22.7 ± 2.4%
percentage of EdU-negative (MCF7; protein concentration 0.225 µM): 25.2 ± 1.3%
percentage of EdU-negative (hTERT-HMEC; [5]): 5.59 ± 0.91%
percentage of EdU-negative (hTERT-HMEC; protein concentration 0.225 µM): 5.94 ± 1.8%

MAAARLCLSLLLLSTCVALLLQPLLGAQGAPLEPVYPGDNATPEQMAQYAADLRRYINMLTRPRYGKRHKEDTLAFSEWGSPHAAVPRELSPLDL
percentage of EdU-negative (MCF7; [10]): 20.5 ± 1.5%
percentage of EdU-negative (MCF7; [11]): 23.4 ± 3.6%
percentage of EdU-negative (hTERT-HMEC; [10]): 5.37 ± 1.1%
percentage of EdU-negative (hTERT-HMEC; [11]): 5.93 ± 0.18%

MAAATGPSFWLGNETLKVPLALFALNRQRLCERLRKNPAVQAGSIVVLQGGEETQRYCTDTGVLFRQESFFHWAFGVTEPGCYGVIDVDTGKSTLFVPRLPASHATWMGKIHSKEHFKEKYAVDDVQYVDEIASVLTSQKPSVLLTLRGVNTDSGSVCREASFDGISKFEVNNTILHPEIVECRVFKTDMELEVLRYTNKISSEAHREVMKAVKVGMKEYELESLFEHYCYSRGGMRHSSYTCICGSGENSAVLHYGHAGAPNDRTIQNGDMCLFDMGGEYYCFASDITCSFPANGKFTADQKAVYEAVLRSSRAVMGAMKPGVWWPDMHRLADRIHLEELAHMGILSGSVDAMVQAHLGAVFMPHGLGHFLGIDVHDVGGYPEGVERIDEPGLRSLRTARHLQPGMVLTVEPGIYFIDHLLDEALADPARASFLNREVLQRFRGFGGVRIEEDVVVTDSGIELLTCVPRTVEEIEACMAGCDKAFTPFSGPK
percentage of EdU-negative (MCF7; [12]): 26 ± 1%
percentage of EdU-negative (MCF7; [13]): 27.3 ± 1.4%
percentage of EdU-negative (hTERT-HMEC; [12]): 5.01 ± 0.5%
percentage of EdU-negative (hTERT-HMEC; [13]): 4.28 ± 0.51%

MAAAVVLAAGLRAARRAVAATGVRGGQVRGAAGVTDGNEVAKAQQATPGGAAPTIFSRILDKSLPADILYEDQQCLVFRDVAPQAPVHFLVIPKKPIPRISQAEEEDQQLLGHLLLVAKQTAKAEGLGDGYRLVINDGKLGAQSVYHLHIHVLGGRQLQWPPG [Q9BX68]
percentage of EdU-negative (MCF7; [5]): 24.7 ± 1.1%
percentage of EdU-negative (MCF7; protein concentration 0.225 µM): 26.8 ± 0.95%
percentage of EdU-negative (hTERT-HMEC; [5]): 4.56 ± 0.51%
percentage of EdU-negative (hTERT-HMEC; protein concentration 0.225 µM): 5.01 ± 0.41%

MAAAWTVVLVTLVLGLAVAGPVPTSKPTTTGKGCHIGRFKSLSPQELASFKKARDALEESLKLKNWSCSSPVFPGNWDLRLLQVRERPVALEAELALTLKVLEAAAGPALEDVLDQPLHTLHHILSQLQACIQPQPTAGPRPRGRLHHWLHRLQEAPKKESAGCLEASVTFNLFRLLTRDLKYVADGNLCLRTSTHPEST [Q8IU54]
percentage of EdU-negative (MCF7; [3]): 25.7 ± 0.7%
percentage of EdU-negative (MCF7; [4]): 26.7 ± 1.7%
percentage of EdU-negative (hTERT-HMEC; [3]): 7.03 ± 0.88%
percentage of EdU-negative (hTERT-HMEC; [4]): 20.5 ± 5.7%

MAAEPLTELEESIETVVTTFFTFARQEGRKDSLSVNEFKELVTQQLPHLLKDVGSLDEKMKSLDVNQDSELKFNEYWRLIGELAKEIRKKKDLKIRKK
percentage of EdU-negative (MCF7; [5]): 27.3 ± 1.9%
percentage of EdU-negative (MCF7; protein concentration 0.225 µM): 25.4 ± 0.45%
percentage of EdU-negative (hTERT-HMEC; [5]): 4.78 ± 0.24%
percentage of EdU-negative (hTERT-HMEC; protein concentration 0.225 µM): 5.02 ± 0.53%

MAAERGARRLLSTPSFWLYCLLLLGRRAPGAAAARSGSAPQSPGASIRTFTPFYFLVEPVDTLSVRGSSVILNCSAYSEPSPKIEWKKDGTFLNLVSDDRRQLLPDGSLFISNVVHSKHNKPDEGYYQCVATVESLGTIISRTAKLIVAGLPRFTSQPEPSSVYAGNNAILNCEVNADLVPFVRWEQNRQPLLLDDRVIKLPSGMLVISNATEGDGGLYRCVVESGGPPKYSDEVELKVLPDPEVISDLVFLKQPSPLVRVIGQDVVLPCVASGLPTPTIKWMKNEEALDTESSERLVLLAGGSLEISDVTEDDAGTYFCIADNGNETIEAQAELTVQAQPEFLKQPTNIYAHESMDIVFECEVTGKPTPTVKWVKNGDMVIPSDYFKIVKEHNLQVLGLVKSDEGFYQCIAENDVGNAQAGAQLIILEHAPATTGPLPSAPRDVVASLVSTRFIKLTWRTPASDPHGDNLTYSVFYTKEGIARERVENTSHPGEMQVTIQNLMPATVYIFRVMAQNKHGSGESSAPLRVETQPEVQLPGPAPNLRAYAASPTSITVTWETPVSGNGEIQNYKLYYMEKGTDKEQDVDVSSHSYTINGLKKYTEYSFRVVAYNKHGPGVSTPDVAVRTLSDVPSAAPQNLSLEVRNSKSIMIHWQPPAPATQNGQITGYKIRYRKASRKSDVTETLVSGTQLSQLIEGLDRGTEYNFRVAALTINGTGPATDWLSAETFESDLDETRVPEVPSSLHVRPLVTSIVVSWTPPENQNIVVRGYAIGYGIGSPHAQTIKVDYKQRYYTIENLDPSSHYVITLKAFNNVGEGIPLYESAVTRPHTDTSEVDLFVINAPYTPVPDPTPMMPPVGVQASILSHDTIRITWADNSLPKHQKITDSRYYTVRWKTNIPANTKYKNANATTLSYLVTGLKPNTLYEFSVMVTKGRRSSTWSMTAHGTTFELVPTSPPKDVTVVSKEGKPKTIIVNWQPPSEANGKITGYIIYYSTDVNAEIHDWVIEPVVGNRLTHQIQELTLDTPYYFKIQARNSKGMGPMSEAVQFRTPKADSSDKMPNDQASGSGGKGSRLPDLGSDYKPPMSGSNSPHGSPTSPLDSNMLLVIIVSVGVITIVVVVIIAVFCTRRTTSHQKKKRAACKSVNGSHKYKGNSKDVKPPDLWIHHERLELKPIDKSPDPNPIMTDTPIPRNSQDITPVDNSMDSNIHQRRNSYRGHESEDSMSTLAGRRGMRPKMMMPFDSQPPQPVISAHPIHSLDNPHHHFHSSSLASPARSHLYHPGSPWPIGTSMSLSDRANSTESVRNTPSTDTMPASSSQTCCTDHQDPEGATSSSYLASSQEEDSGQSLPTAHVRPSHPLKSFAVPAIPPPGPPTYDPALPSTPLLSQQALNHHIHSVKTASIGTLGRSRPPMPVVVPSAPEVQETTRMLEDSESSYEPDELTKEMAHLEGLMKDLNAITTA
percentage of EdU-negative (MCF7; [10]): 24 ± 1.2%
percentage of EdU-negative (MCF7; [11]): 26.44 ± 0.25%
percentage of EdU-negative (hTERT-HMEC; [10]): 6.13 ± 1.3%
percentage of EdU-negative (hTERT-HMEC; [11]): 12.3 ± 1.7%

MAAFPHKIIFFLVCSTLTHVAFSGIFNKRDFTRWPKPRCKMYIPLDPDYNADCPNVTAPVCASNGHTFQNECFFCVEQREFHYRIKFEKYGKCD [Q1W4C9]
percentage of EdU-negative (MCF7; [5]): 26.8 ± 1.7%
percentage of EdU-negative (MCF7; protein concentration 0.225 µM): 27.7 ± 0.31%
percentage of EdU-negative (hTERT-HMEC; [5]): 5.06 ± 0.42%
percentage of EdU-negative (hTERT-HMEC; protein concentration 0.225 µM): 7.07 ± 0.77%
